{"source": "the nanobody polyreactivity screen of Harvey et al. (2022)", "data": [{"test": "yeast display, Sf9 membrane polyspecificity reagent, FACS + sequencing; frameworks hold sequencing errors", "outline": "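Synthetic nanobody libraries on Saccharomyces cerevisiae BJ5465 were galactose-induced for 36–48 hours, stained 1 hour at 4 °C with 10% biotinylated, detergent-solubilized Sf9 membrane reagent and enriched on streptavidin microbeads. FACS then separated cells into low and high (top ~1%) gates by anti-HA (expression) and streptavidin (reagent binding) fluorescence. Genes were colony-PCR amplified, MiSeq 2 × 250 sequenced and CDR-length filtered. A clone's polyreactivity label is that of its gate of origin.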", "values": [{"sequence": "QVQLVESGGGLVQAGGSLRLSCAASGFTFDSYAMGRYRQAPGKERELVAAISSSGGDSTSYADSVKGRFTISRDNAKNTVYLQMNRLKPEDTAVYYCADEQFYSFIVDDTWFSGFDYWGQGTQVTVSS", "polyreactivity (PSR sort gate)": "low polyreactivity"}, {"sequence": "QVQLVESGGGLVQAGGSLRLSCAASGLIFYDNMGWSRQAPGKERELVAAISSSGGSTSYADSVKGRFTISRDNAKNTVYVQMNSLKPVDTAVYYCAADSYPAYLGFVGFDYWGQGTQVTVSS", "polyreactivity (PSR sort gate)": "low polyreactivity"}, {"sequence": "QDQLVESGGGLVQWGRSLGIRCAASGRIFNVKAMGWYRQAPGNEREFDAAISGSVGSTYYADSVKGRFTISRDNAKYSVYLQHNSLKRLDTAVYYCAARYGYDRNRRPGYVYWGQGTQVTVSS", "polyreactivity (PSR sort gate)": "low polyreactivity"}, {"sequence": "QVQLVESGGGLVQAGGSLRLSCAASGFTLYGYTMGWYRQAPGKERELVAAISGSGGRTYYADSVKGRFTISRDNAKNTVYLQMNSLKPEDTAVYYCAARHHPEYYYWGQGTQVTVSS", "polyreactivity (PSR sort gate)": "high polyreactivity"}, {"sequence": "QVQLVESGGGLVHAGGSLRLSCAPSGSNFCFNAMGWYRQAPGKERELVAAIPSRGGSTYYADSVKGRFTISRDNAKNTVYLQMNSLKPEDTAVYYCNADHRDTFIWVGLPHMDYWGQGTQVTVSS", "polyreactivity (PSR sort gate)": "low polyreactivity"}, {"sequence": "QVQLVESRGGLVQAGGSLRLSCAASGSNFTLYAMGWYRQAPGKERELGATITISGGGTYYADSVKGRFTISRDNAKNTVYLQMNSLKPEDTAVYYCAVKSIVRRKGYTYYRYDYWGQGTQVTVSS", "polyreactivity (PSR sort gate)": "high polyreactivity"}, {"sequence": "QVQLVESGGGLVQAGGSLRLSCAASGSIFRHNAMGWYRQAPGKERELVAAISRRASSTYYADSVKGRFTISRDNAKNTVYVQMNSLKPEDTAVYYCAVVPSSTYHAYDYWGQGTQVTVSS", "polyreactivity (PSR sort gate)": "high polyreactivity"}, {"sequence": "QVQLVESGGGLVQAGGSLRLSCDASGRILIGYTMGWYRQAPGKERELVARINYSGGSTYYADSVKGRFTISRDNAKNTVYLQMNSLKPEDTAVYYCDADVRRGYYTWPPRRVYYWGQGTQVTVSS", "polyreactivity (PSR sort gate)": "high polyreactivity"}, {"sequence": "QVQLVESGGGLVQAGGSLRLSCAASGSTFAINVMGWYRQAPGKERELVAAISSVGGTNYADSVKGRFTISRDNAKNTVYLQMNSLKPEDTAVYYCATVYSSWTVRYDYWGQGTQVTVSS", "polyreactivity (PSR sort gate)": "low polyreactivity"}, {"sequence": "QVQLVESGGGLVQAGGSLRLSCAASGSIFGLNAMGWYRQAPGKEREFVAAIDKNGAGTYYADSVKGRFTISRDNAKNTVYLQMNSLKPEDTAVYYCAAEYRSYGWYGYVVEYDYWGLGTQVTVSS", "polyreactivity (PSR sort gate)": "high polyreactivity"}, {"sequence": "QVQLVESGGGLVQAGGSLRLSCAASGRIFSYNAMGWYRQAPGKERELVAAISSDGSTYYADSVKGRFTISRDNAKNSVYLQMNSLKPEDTAVYYCAADTWRDGDDYWGQGTQVTVSS", "polyreactivity (PSR sort gate)": "low polyreactivity"}, {"sequence": "QVLLVESRGGLVQAGGSLRLSCAASGSIFFYYAMGWYRQAPGKETELVASISWSGGSTYYADSVKGRFTISRDNAKNTVYLQMNSLKPEDTAVYFCAKVTITFSWETLYDYWGQGTQVTVSS", "polyreactivity (PSR sort gate)": "low polyreactivity"}, {"sequence": "QVQLVESGGGLVQAGGSLRLSCAASGRIFKYYAMGWYRQAPGKERELVAAITSSGVSTYADSVKGRFTISRDNAKNTVYLQMNSLKPEDTAVSYCNAADERSQGWVGCDHWGQCTQVTVSS", "polyreactivity (PSR sort gate)": "low polyreactivity"}, {"sequence": "QVQLVESGGGLVQAGGSLRLICAASGRTFYYYAMGWYRQAPGKERELVAAISKDGGRTYYADSVKGRFTISRDNAKHTVYLQMKSLKPEDTAVYYCAARYSSSRGLSSEYWGQGTQVTVSS", "polyreactivity (PSR sort gate)": "high polyreactivity"}, {"sequence": "QVQLVESGGGLVQAGGSLRLSCAASGSIFTLNAMGWYRQAPGKERELVAAISRSGGSTYYADSVKGRFTISRDNAKNTVYLQMNSLKPEDTAVYYCAVYVTRDSGWWLYDYWGQGTQVTVSS", "polyreactivity (PSR sort gate)": "high polyreactivity"}, {"sequence": "QVQLVESGVGLVQAGGSLRLSCAASGRTFYKNAMGWSRQSPGKERELVAAISRRGGTTYYADSVKGRFTISRDNAKNTVYLQLNSPKPEDTAVYYCAVTRLGPTIGFYYWGQGTQVTVSS", "polyreactivity (PSR sort gate)": "high polyreactivity"}, {"sequence": "QVQLVESGGGLVQAGGSLRLSCAASGLIFWAYAMGWYRQAPGKERELVAGISVSGGSTYYADSVKGRFTISRDNAKNTVYLQMNSLKPEDTAVYYCAARLPRTRYWDDYWGQGTQVTVSS", "polyreactivity (PSR sort gate)": "high polyreactivity"}, {"sequence": "QVQLVESGGGLVQAGGSLRLICAASGRIFRINAMGWYRQAPGKEREFVAAISWRSGSTYYADSVKGRFTISRDNAKNSVYLQMNSLKPEDTAVYYCAAKLYGYRSGYYYWGQGTQVTVSS", "polyreactivity (PSR sort gate)": "high polyreactivity"}, {"sequence": "QVQRVESGGGLVQAGGSLRLTCAASGYTSLWYGMGWSRQAPGKERDLVAAISSSGNTNYADSVKGRFTISRDNAKNTVYLQMNSLKPEDTAVYYCAVELKQVTPGLGYITLDYWGQGTQVTVSS", "polyreactivity (PSR sort gate)": "low polyreactivity"}, {"sequence": "QVQLVESGGGLVQAGGSLRLSCAASGFTFDKNTMGWYRQAPGKERELVAAITRGGGSTYYADSVKGRFTISRDNAKNTVYLQMNSLKPEDTAVYYCAARYWTKRYRLLDYWGQGTQVTVSS", "polyreactivity (PSR sort gate)": "high polyreactivity"}, {"sequence": "QVQLVESGGGLVQAGGSLRLSCAASGSIFDIYAMGWYRQAPGKERELVAAISLSAGSTYYADSVKGRFTISRDNAKNTVYLQMNSLKPEDTAVYYCAKDFFEHSPVSHTYSSSKYDYWGQGTQVTVSS", "polyreactivity (PSR sort gate)": "low polyreactivity"}, {"sequence": "QVQLVESGGGLVQAGGSLRLSCAASGSTFTYYAMGWYRQAPGKERELVASISSTTGSTYYADSVKGRFTISRDNAKNTVYLQMNSLKPEDTAVYYCAAERVYPWYRYYYWGQGTQVTVSS", "polyreactivity (PSR sort gate)": "low polyreactivity"}, {"sequence": "QVQLVDSGGGLVQAGGSLRLSCAASGNIFWENTMGSYRQAPGKERELVASISNTGTTNYADSVKGRFTISRDNAKNTVYLQMNSLKPEDTAVYDCNTDLWIDTASPAPNDDDYWGQGTQVTVSS", "polyreactivity (PSR sort gate)": "low polyreactivity"}, {"sequence": "QDQLVESGGGLVQAGGSLRLSCAASGSILGHYDMGWYRPAPGKERELVAAISWSGGSTYYADSVKGRFTISRDNAKNTVYLQMNSLKPEDTAVYYCNAAAILYTSAGSLYWYDYWGQGTQVTVSS", "polyreactivity (PSR sort gate)": "low polyreactivity"}, {"sequence": "QVQLVESGGGLVQEGGSLRLSCDASAITIGRYAMGWYRQAPGKERELVAAISWSGGSTYFADSVKGRFTISRDNAKNTVYLHMNSLKPEDTAVYYCATRIRTVAYNYWGQGTQVTVSS", "polyreactivity (PSR sort gate)": "high polyreactivity"}, {"sequence": "QVQLVESGGGLVQAGCSLRLSCAASGSIFGFYAMGWYRQAPGKERELVATIRSSGGNTYYADSVKGRFTISRDNAKNTVYLEMNSLKPEDTGVFYCAASFLIRAYVDRNDYWGLGTQVTVSS", "polyreactivity (PSR sort gate)": "low polyreactivity"}, {"sequence": "QVQLVESGGGLVQAGGSLRLSCAASGIIFHKYAMGWYRQAPGKERELVAVITWRGGSTYYADSVKGRFTISRDHAKNTVYLQMNSLKPEDTAVYYCAARSQYRDRTGQYGYWGQGTQVTVSS", "polyreactivity (PSR sort gate)": "high polyreactivity"}, {"sequence": "QVQLVESGGGLVQAGGSLRLSCAASGSIFNDNVMGWYRPAPGKERELVAGISRSGTRTYYADSVKGRFTISRDNAKNTVYLQMNSLKPEDNAVYYCAAAYGQARRYNGSQYGSWGQGTQVTVSS", "polyreactivity (PSR sort gate)": "high polyreactivity"}, {"sequence": "QVQLVESGGGLVQAGGSLRLSCAASGTFVKYARGWYRQAPGKERELVATITGSGGSTYYADSVKGRFTISRDNAKNTVYLQMNSLKPEDTAVYYCAAREGYVFYKYDYWGQGTQVTVSS", "polyreactivity (PSR sort gate)": "low polyreactivity"}, {"sequence": "QVQLVESGGGIVQAGGSLRLSCAASGFTFVNNAIGWYRQAPGKERELVASITRRGGRTYYADSVKGRFTISRDNAKNTVYLQMNSLKPEDTAVYYCAVQGYGWGPLGYAEYDYWGQGTQVTVSS", "polyreactivity (PSR sort gate)": "high polyreactivity"}, {"sequence": "QVQLVESGGGLVQAGGSLRLSCAASGRTFYRYAMGWYRQAPGKERELVARIRSGGSTNYADSVKGRFTISRDNAKNTVYLQMNSLKPEDTAVYYCAARPGAAGYKYYYWGQGTQVTVSS", "polyreactivity (PSR sort gate)": "high polyreactivity"}, {"sequence": "QVQLVESGGGLVQAGGSLRLSCAASGRTFRKYAMGWSRQAPGKERELVAAINRGGTTKYADSVKGRFTISRDNAKNTVYLQMNSLKPEDTAVYYCNAAYGGVFFYAYDYWGQGTQVTVSS", "polyreactivity (PSR sort gate)": "low polyreactivity"}, {"sequence": "QVQLVDSVGGLVKAGCSLRLSCAASGSTLPVNAKGCYRQAPGKERELVAAINRDGSTIYADSVKRPFTISRDIAKNTVYLKMNRLKPEDTAVYYCAADGFGYPGKRYDFWGQGTQVTVSS", "polyreactivity (PSR sort gate)": "low polyreactivity"}, {"sequence": "QVQLVESGGGLVQAGGSLRLSCAPSGFTSWQYAMGWYRPAPGKERELVAAISVSGASTYYADSVKGRFTISRDNAKNTVYLQMNSLKPEDTAVYYCAAAYVRYPTTRYFYWGQGTQVTVSS", "polyreactivity (PSR sort gate)": "high polyreactivity"}, {"sequence": "QVQLVESGGGLVQAGGSLRLSSAASGSTFTVNGMGWYSQAPGKERELVAAIDGGDGSTYYADSVKGRFTISRDNAKNTVYLQMTSLKPEDTAVYYCAADPPGFTQYGYWGQGTQVTVSS", "polyreactivity (PSR sort gate)": "low polyreactivity"}, {"sequence": "QVQLVESGGGLVQAGGSLRLSCAASGRTFPYNAMGWYRQAPGKEMELVAVISSSGGSTYYADSVKGRFTISRDNAKNTVYLQMNSLKPEDTAVYYCNTRPYYYRRPGYRYSGYDYWGQGTQVTVSS", "polyreactivity (PSR sort gate)": "high polyreactivity"}, {"sequence": "QVQLVESGGGLVQAGGSLRLSCAASGLIFSEYAMGWYRQAPGKERELDAAIRSDGGSTYYADSVKGRFTISRDNAKNTVYLQMNSLKPEDTAVYYCNDRHRSQTRTAMNYWGQGTIVTVSS", "polyreactivity (PSR sort gate)": "high polyreactivity"}, {"sequence": "QVQLVESGGGLDQAGGSLRLSCAASGNIFSDSTMGWYRQAPGKEIELVAAISGDGGTTYYADSVKGRFTISRDNAKHTVYLQMNSLKPEDTAVYFCAGDGYYDAYDQFFIVYYEYDYWGQGTQVTVSS", "polyreactivity (PSR sort gate)": "low polyreactivity"}, {"sequence": "QVQLVESGGGLVQAGGSLRLSGAASGRTCGTNAMGWSRQAHGKERELVAAISSSGGSTYYADSVKGRFTISRDNAKNTVYLQMISQKPEDTAVYYCAQGWHRGVGFGYWGQGTQVTVSS", "polyreactivity (PSR sort gate)": "high polyreactivity"}, {"sequence": "QVQLVESGGGLIQAGGSLRLSCAASGSTFGTYTRGWYRQAPGKERELVAAIRSGGITYYADSVKGRFTISRDNAKNTVYLQMNSLKPEDTAVYYCAKQYTGEPAMEYWGQGTQVTVSS", "polyreactivity (PSR sort gate)": "low polyreactivity"}]}]}
